Measurements taken from the supplement of paper PMC7877785.
± gives the uncertainty stated by the source.

Assay: self-splicing fitness, log relative to wild type (ln ratio); higher = more splicing; Tetrahymena group I intron in knt gene, E. coli kanamycin selection, DiMSum; sequences stand for … in CUCUCU…GGAGGGAAAAGUUAUCAGGCAUGCACCUGGUAGCUAGUCUUUAAACCAAUAGAUUGCAUCGGUUUAAAAGGCAAGACCGUCAAAUUGCGGGAAAGGGGUCAACAGCCGUUCAGUACCAAGUCUCAGGGGAAACUUUGAGAUGGCCUUGCAAAGGGUAUGGUAAUAAGCUGACGGACAUGGUCCUAACCACGCAGCCAAGUCCUAAGUCAACAGAUCUUCUGUUGAUAUGGAUGCAGUUCACAGACUAAAUGUCGGUCGGGGAAGAUGUAUUCUUCUCAUAAGAUAUAGUCGGACCUCUCCUUAAUGGGAGCUAGCGGAUGAAGUGAUGCAACACUGGAGCCGCUGGGAACUAAUUUGUAUGCGAAAGUAUAUUGAUUAGUUUUGGAGUACUCGUGGUCG
Method in brief: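 Pooled colonies went to amplicon sequencing on an Illumina HiSeq 2500 after six replicate transformations. The plates were LB agar with 100 μg/mL carbenicillin, 50 μM IPTG and 0.2% rhamnose, with or without 25 μg/mL kanamycin, incubated overnight at 37°C or 30°C. The E. coli BL21(DE3) library had all eight P1ex-region intron nucleotides randomised, the intron placed in the knt kanamycin-resistance gene on pET-22b(+). DiMSum fitness is the error-weighted combination of replicate fold changes, kanamycin against none, normalised to wild type.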

Sequence	self-splicing fitness (ln) (30 °C)	self-splicing fitness (ln) (37 °C)
GUGUAGCAAUAUUACGUAUU	-1.25 ± 0.12	-2.82 ± 0.22
GUGUAGCAAUAUUACGUGAU	-1.59 ± 0.17	0.0886 ± 0.19
GUGUAGCAAUAUUACGUUUG	-2.54 ± 0.27	-1.44 ± 0.28
GUUAAGCAAUAUUACGAAAG	-1.91 ± 0.14	-1.5 ± 0.22
GUUAAGCAAUAUUACGAACG	-2.01 ± 0.28	-1.16 ± 0.31
GUUAAGCAAUAUUACGAACU	-2.35 ± 0.2	-0.527 ± 0.2
GUUAAGCAAUAUUACGAAUU	-1.72 ± 0.21	-1.4 ± 0.24
GUUAAGCAAUAUUACGAGUU	-1.36 ± 0.11	-0.688 ± 0.14
GUUAAGCAAUAUUACGAUAC	-1.34 ± 0.21	-0.951 ± 0.28
GUUAAGCAAUAUUACGAUGA	-1.33 ± 0.17	0.18 ± 0.11
GUUAAGCAAUAUUACGAUGC	-0.546 ± 0.18	-0.241 ± 0.18
GUUAAGCAAUAUUACGCGCG	-0.983 ± 0.09	0.0623 ± 0.14
GUUAAGCAAUAUUACGCUCG	-0.539 ± 0.13	0.0474 ± 0.16
GUUAAGCAAUAUUACGGCGU	-0.0268 ± 0.076	-0.00868 ± 0.094
GUUAAGCAAUAUUACGGGGA	-3.04 ± 0.37	-2.15 ± 0.47
GUUAAGCAAUAUUACGUCCG	-1.77 ± 0.17	-0.533 ± 0.23
GUUAAGCAAUAUUACGUUUU	-3.11 ± 0.15	-1.7 ± 0.16
GUUCAGCAAUAUUACGAACA	-2.43 ± 0.26	-1.45 ± 0.22
GUUCAGCAAUAUUACGAAGC	-0.705 ± 0.18	-1.29 ± 0.2
GUUCAGCAAUAUUACGAAUC	-3.73 ± 0.24	-2.29 ± 0.33
GUUCAGCAAUAUUACGACAA	-1.06 ± 0.18	-0.319 ± 0.18
GUUCAGCAAUAUUACGACAG	-3.33 ± 0.35	-1.76 ± 0.42
GUUCAGCAAUAUUACGACCG	-3.83 ± 0.18	-1.93 ± 0.23
GUUCAGCAAUAUUACGACGG	-4.42 ± 0.24	-3.24 ± 0.37
GUUCAGCAAUAUUACGAGAA	-1.81 ± 0.49	-2.14 ± 0.31

Sequence	self-splicing fitness (ln) (30 °C)	self-splicing fitness (ln) (37 °C)
GUUCAGCAAUAUUACGAGGU	-2.25 ± 0.12	-0.472 ± 0.13
GUUCAGCAAUAUUACGAGUG	-1.59 ± 0.18	-0.332 ± 0.14
GUUCAGCAAUAUUACGAUAU	-0.361 ± 0.086	0.524 ± 0.097
GUUCAGCAAUAUUACGCAAU	-1.08 ± 0.16	-0.106 ± 0.19
GUUCAGCAAUAUUACGCACC	-1.33 ± 0.13	-0.136 ± 0.21
GUUCAGCAAUAUUACGCUCC	-0.282 ± 0.15	-0.544 ± 0.23
GUUCAGCAAUAUUACGCUUG	-1.54 ± 0.081	-0.171 ± 0.089
GUUCAGCAAUAUUACGGAAU	-2.45 ± 0.19	-2.46 ± 0.27
GUUCAGCAAUAUUACGGACA	-1.59 ± 0.18	-1.02 ± 0.16
GUUCAGCAAUAUUACGGCUU	-0.546 ± 0.086	0.571 ± 0.12
GUUCAGCAAUAUUACGGGAG	-0.317 ± 0.077	-0.683 ± 0.095
GUUCAGCAAUAUUACGGGCU		-1.56 ± 0.28
GUUCAGCAAUAUUACGGGGU	-3.36 ± 0.17	-1.73 ± 0.16
GUUCAGCAAUAUUACGGGUA	-2.23 ± 0.12	-0.474 ± 0.097
GUUCAGCAAUAUUACGGGUG	-1.49 ± 0.09	-0.763 ± 0.089
GUUCAGCAAUAUUACGGUCU	-0.136 ± 0.047	0.327 ± 0.063
GUUCAGCAAUAUUACGUAGA	-0.546 ± 0.1	-0.394 ± 0.1
GUUCAGCAAUAUUACGUUAU	-0.292 ± 0.077	-0.207 ± 0.099
GUUCAGCAAUAUUACGUUCG	-0.684 ± 0.067	0.137 ± 0.1
GUUGAGCAAUAUUACGAAGG	-3.35 ± 0.41	-2.68 ± 0.4
GUUGAGCAAUAUUACGAGGA	-2.48 ± 0.45	
GUUGAGCAAUAUUACGAUGA		-2.27 ± 0.42
GUUGAGCAAUAUUACGCACG	-3.13 ± 0.43	
GUUGAGCAAUAUUACGCCGU	-2.98 ± 0.23	-0.768 ± 0.16
GUUGAGCAAUAUUACGCGAA	-3.43 ± 0.46	-1.9 ± 0.43

Sequence	self-splicing fitness (ln) (30 °C)	self-splicing fitness (ln) (37 °C)
GUUGAGCAAUAUUACGCGUC	-1.59 ± 0.27	-0.951 ± 0.34
GUUGAGCAAUAUUACGCUAC	-1.28 ± 0.49	
GUUGAGCAAUAUUACGCUAU	-2.06 ± 0.35	-2.66 ± 0.46
GUUGAGCAAUAUUACGCUUG	-2.79 ± 0.22	-2.15 ± 0.27
GUUGAGCAAUAUUACGGCCU	-2.03 ± 0.18	-0.897 ± 0.2
GUUGAGCAAUAUUACGGGCG	-2.38 ± 0.18	-1.58 ± 0.25
GUUGAGCAAUAUUACGGUAA	-2.51 ± 0.27	-2.49 ± 0.35
GUUGAGCAAUAUUACGGUAC	-3.45 ± 0.34	-1.79 ± 0.38
GUUGAGCAAUAUUACGUACC	-1.75 ± 0.36	
GUUGAGCAAUAUUACGUCGC	-2.1 ± 0.35	-1.17 ± 0.29
GUUGAGCAAUAUUACGUGGC	-3.09 ± 0.25	-2.17 ± 0.28
GUUUAGCAAUAUUACGAGUG	-3.74 ± 0.17	-0.634 ± 0.11
GUUUAGCAAUAUUACGAGUU	-4.25 ± 0.29	-2.3 ± 0.14
GUUUAGCAAUAUUACGAUGU	-1.16 ± 0.11	-0.261 ± 0.14
GUUUAGCAAUAUUACGAUUU	-0.709 ± 0.068	0.111 ± 0.096
GUUUAGCAAUAUUACGCAUU	-1.53 ± 0.11	-0.487 ± 0.12
GUUUAGCAAUAUUACGCCGU	-2.03 ± 0.13	-0.93 ± 0.14
GUUUAGCAAUAUUACGCUGA	-3.66 ± 0.33	-1.6 ± 0.23
GUUUAGCAAUAUUACGCUUC		-1.36 ± 0.43
GUUUAGCAAUAUUACGCUUG	-1.18 ± 0.099	0.632 ± 0.15
GUUUAGCAAUAUUACGGAGU	-2.3 ± 0.13	-1.63 ± 0.12
GUUUAGCAAUAUUACGGCGA	-0.198 ± 0.23	-0.0729 ± 0.19
GUUUAGCAAUAUUACGUCAA	-2.3 ± 0.18	-0.778 ± 0.16
GUUUAGCAAUAUUACGUCAU	-0.998 ± 0.069	-0.817 ± 0.099
GUUUAGCAAUAUUACGUCCG	-2.86 ± 0.2	-1.89 ± 0.29

Sequence	self-splicing fitness (ln) (30 °C)	self-splicing fitness (ln) (37 °C)
GUUUAGCAAUAUUACGUCGA	-1.43 ± 0.28	-0.62 ± 0.28
GUUUAGCAAUAUUACGUCUC	-0.593 ± 0.19	0.43 ± 0.24
GUUUAGCAAUAUUACGUGGC	-0.884 ± 0.32	-1.46 ± 0.33
GUUUAGCAAUAUUACGUGUG	-2.08 ± 0.11	-1.36 ± 0.11
UAAAAGCAAUAUUACGAAAU	-3.04 ± 0.16	-2.45 ± 0.21
UAAAAGCAAUAUUACGAACU	-0.332 ± 0.23	-0.647 ± 0.2
UAAAAGCAAUAUUACGACAU	-1.09 ± 0.012	-0.402 ± 0.032
UAAAAGCAAUAUUACGACCA	-0.143 ± 0.092	0.711 ± 0.13
UAAAAGCAAUAUUACGAGAC	-2.39 ± 0.28	-2.29 ± 0.26
UAAAAGCAAUAUUACGAGGU	-4.31 ± 0.3	-1.59 ± 0.17
UAAAAGCAAUAUUACGAUAG	-0.934 ± 0.078	-0.765 ± 0.088
UAAAAGCAAUAUUACGAUUA	0.154 ± 0.073	0.0591 ± 0.088
UAAAAGCAAUAUUACGCAGU	-2.66 ± 0.16	-1.3 ± 0.13
UAAAAGCAAUAUUACGCGAC	-3.73 ± 0.33	-2.64 ± 0.24
UAAAAGCAAUAUUACGCGCA	-0.512 ± 0.084	0.752 ± 0.13
UAAAAGCAAUAUUACGCGGA	-1.8 ± 0.08	-0.32 ± 0.082
UAAAAGCAAUAUUACGCGGU	-3.58 ± 0.29	-2.34 ± 0.27
UAAAAGCAAUAUUACGCUGG	-1.46 ± 0.13	-1.65 ± 0.17
UAAAAGCAAUAUUACGGCUG	0.0596 ± 0.093	0.0696 ± 0.12
UAAAAGCAAUAUUACGGCUU	-0.922 ± 0.088	-0.468 ± 0.11
UAAAAGCAAUAUUACGGGAG	-2.66 ± 0.14	-1.25 ± 0.11
UAAAAGCAAUAUUACGGUUC	-3.1 ± 0.17	-2.42 ± 0.2
